Paper PMC3865253

Legend:
YFP-ICAC84-224 (rat) = assay: FRET or BRET; living HEK293T cells co-expressing CFP- and YFP-tagged proteins; three-filter imaging; normalized FRET signal N_FRET (Eq. 1); when FRET occurs N_FRET is greater than 0.2
GFP-ICAC1-83 (rat) = assay: co-IP; 293T cells co-transfected with myc-PICK1 and GFP, GFP-ICA69 or a GFP-tagged truncation; RIPA lysate; precipitated with anti-GFP antibody on protein A-sepharose; blot with anti-myc; quantified as Co-IP myc/Input myc, normalized to the ICA69 group; 4 independent cultures
GFP-ICAC84-224 (rat) = assay: as above
GFP-ICAC84-224 (rat), sequence (Q63054 whole entry): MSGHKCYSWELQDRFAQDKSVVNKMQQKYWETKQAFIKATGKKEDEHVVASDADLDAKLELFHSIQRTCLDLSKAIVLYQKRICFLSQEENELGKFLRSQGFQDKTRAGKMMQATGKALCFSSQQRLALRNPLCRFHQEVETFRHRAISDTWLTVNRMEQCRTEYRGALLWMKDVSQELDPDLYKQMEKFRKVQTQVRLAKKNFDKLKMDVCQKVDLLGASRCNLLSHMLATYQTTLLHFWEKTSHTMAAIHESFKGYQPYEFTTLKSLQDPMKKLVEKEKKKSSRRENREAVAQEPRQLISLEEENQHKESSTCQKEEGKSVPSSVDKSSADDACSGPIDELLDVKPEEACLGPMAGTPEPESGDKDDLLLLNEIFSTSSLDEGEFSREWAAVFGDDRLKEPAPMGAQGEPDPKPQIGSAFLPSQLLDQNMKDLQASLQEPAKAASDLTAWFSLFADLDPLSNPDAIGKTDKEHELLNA

YFP-ICAC84-224 (rat), sequence (Q63054 whole entry, the tested form may be a part): as the sequence (Q63054 whole entry) above

N FRET (YFP-ICAC84-224 (rat))	percentage of precipitated protein normalized to ICA69 group (GFP-ICAC1-83 (rat)) [%]	percentage of precipitated protein normalized to ICA69 group (GFP-ICAC84-224 (rat)) [%]	Substance
0.86			CFP-PICK1 (from UniProt Q9EP80 1-416) (natural protein)
	11	66	myc-PICK1 (protein interacting with C-kinase 1) (from UniProt Q9EP80 1-416) (natural protein)
